Reference: patent US20200239537

Target: T1, apelin-17 (2)
T1 chain: KFRRQRPRLSHKGPMPF

B1: recombinant human neprilysin (rhNEP, Sino Biological) (protein)
chain: YDDGICKSSDCIKSAARLIQNMDATTEPCTDFFKYACGGWLKRNVIPETSSRYGNFDILRDELEVVLKDVLQEPKTEDIVAVQKAKALYRSCINESAIDSRGGEPLLKLLPDIYGWPVATENWEQKYGASWTAEKAIAQLNSKYGKKVLINLFVGTDDKNSVNHVIHIDQPRLGLPSRDYYECTGIYKEACTAYVDFMISVARLIRQEERLPIDENQLALEMNKVMELEKEIANATAKPEDRNDPMLLYNKMTLAQIQNNFSLEINGKPFSWLNFTNEIMSTVNISITNEEDVVVYAPEYLTKLKPILTKYSARDLQNLMSWRFIMDLVSSLSRTYKESRNAFRKALYGTTSETATWRRCANYVNGNMENAVGRLYVEAAFAGESKHVVEDLIAQIREVFIQTLDDLTWMDAETKKRAEEKALAIKERIGYPDDIVSNDNKLNNEYLELNYKEDEYFENIIQNLKFSQSKQLKKLREKVDKDEWISGAAVVNAFYSSGRNQIVFPAGILQPPFFSAQQSNSLNYGGIGMVIGHEITHGFDDNGRNFNKDGDLVDWWTQQSASNFKEQSQCMVYQYGNFSWDLAGGQHLNGINTLGENIADNGGLGQAYRAYQNYIKKNGEEKLLPGLDLNHKQLFFLNFAQVWCGTYRPEYAVNSIKTDVHSPGNFRIIGTLQNSAEFSEAFHCRKNSYMNPEKKCRVW
Question: Which results are given for B1?
Answer: Km: 190 µM; kcat (1/S): 3.4 1/S; kcat/Km (1/MS): 18000 1/MS
